Changes are numbered by the printed parent chain. Numbers in names are those of the source.

Consider seven proteins from article PMC10761851, “Asymmetric α-benzylation of cyclic ketones enabled by concurrent chemical aldol condensation and biocatalytic reduction” (Nature Communications, 2024).

B1: YqjM (Bacillus subtilis subsp. subtilis str. 168) (protein)
chain: ARKLFTPITIKDMTLKNRIVMSPMCMYSSHEKDGKLTPFHMAHYISRAIGQVGLIIVEASAVNPQGRITDQDLGIWSDEHIEGFAKLTEQVKEQGSKIGIQLAHAGRKAELEGDIFAPSAIAFDEQSATPVEMSAEKVKETVQEFKQAAARAKEAGFDVIEIHAAHGYLIHEFLSPLSNHRTDEYGGSPENRYRFLREIIDEVKQVWDGPLFVRVSASDYTDKGLDIADHIGFAKWMKEQGVDLIDCSSGALVHADINVFPGYQVSFAEKIREQADMATGAVGMITDGSMAEEILQNGRADLIFIGRELLRDPFFARTAAKQLNTEIPAPVQYERGW
notes: ene-reductase, FMN enzyme
B2: YqjM (Bacillus subtilis subsp. subtilis str. 168; C26A/I69Y) (protein)
chain: B1 chain with C25A, I68Y
notes: ene-reductase, FMN enzyme
B3: YqjM (Bacillus subtilis subsp. subtilis str. 168; I69G) (protein)
chain: B1 chain with I68G
notes: ene-reductase, FMN enzyme
B4: YqjM (Bacillus subtilis subsp. subtilis str. 168; I69Y) (protein)
chain: B1 chain with I68Y
notes: ene-reductase, FMN enzyme
B5: YqjM (Bacillus subtilis subsp. subtilis str. 168; C26G/I69Y/Y169F) (protein)
chain: B1 chain with C25G, I68Y, Y168F
notes: ene-reductase, FMN enzyme
B6: YqjM (Bacillus subtilis subsp. subtilis str. 168; C26G/I69Y/Y28F) (protein)
chain: B1 chain with C25G, Y27F, I68Y
notes: ene-reductase, FMN enzyme
B7: YqjM (Bacillus subtilis subsp. subtilis str. 168; C26G/I69Y) (protein)
chain: B1 chain with C25G, I68Y
notes: ene-reductase, FMN enzyme

Substrate in the first series: O=C1CCC/C1=C\c1ccccc1
Briefly: purified protein. As to conditions: 1.0 mM NADPH, 10 μM enzyme, PBS 100 mM, pH 7.5, 30 °C. It is filed as biochemical, Bacillus subtilis.
For orientation: Km means the concentration of substrate that gives half-maximal velocity. As usually defined, the kcat is the maximal rate divided by the concentration of active sites. By kcat/Km is commonly meant the second-order rate constant that governs catalysis at low substrate concentration. For B1, the Km came to 8.35 ± 0.2 mM, the kcat was determined as 0.23 ± 0.005 s⁻¹ and the kcat/Km was 30 M⁻¹ s⁻¹.
Turning to B2, the Km is on record as 2.65 ± 0.02 mM, the kcat came to 0.89 ± 0.023 s⁻¹ and the kcat/Km is 340 M⁻¹ s⁻¹.
For B3, the Km came to 3.56 ± 0.08 mM, the kcat was determined as 0.39 ± 0.012 s⁻¹ and the kcat/Km was determined as 110 M⁻¹ s⁻¹.
Consider B4, for which the Km was determined as 4.25 ± 0.09 mM, the catalytic constant (kcat) is 0.65 ± 0.015 s⁻¹ and the kcat/Km was 150 M⁻¹ s⁻¹.
Take B5: the Michaelis constant (Km) was determined as 1.69 ± 0.01 mM, the catalytic constant (kcat) was found to be 0.56 ± 0.009 s⁻¹ and the kcat/Km is 330 M⁻¹ s⁻¹.
As to B6, the Km was 2.21 ± 0.02 mM, the kcat stood at 0.49 ± 0.012 s⁻¹ and the kcat/Km was found to be 220 M⁻¹ s⁻¹.
For the protein B7, the Km came to 1.21 ± 0.01 mM, the kcat came out at 1.59 ± 0.03 s⁻¹ and the kcat/Km was 1310 M⁻¹ s⁻¹.

Substrate in another series: O=C1CCCC/C1=C\c1ccccc1
The series is described as follows: purified protein. It is filed as biochemical, Bacillus subtilis. As to conditions: 1.0 mM NADPH, 10 μM enzyme, PBS 100 mM, pH 7.5, 30 °C.
In the case of B1, the Km was 7.98 ± 0.18 mM, the turnover number (kcat) was 0.19 ± 0.009 s⁻¹ and the kcat/Km is 20 M⁻¹ s⁻¹.
Consider B2, for which the Km turned out to be 2.98 ± 0.1 mM, the catalytic constant (kcat) stood at 1.12 ± 0.02 s⁻¹ and the kcat/Km was 380 M⁻¹ s⁻¹.
Regarding B3, the Km turned out to be 3.48 ± 0.11 mM, the kcat was found to be 0.43 ± 0.01 s⁻¹ and the kcat/Km stood at 120 M⁻¹ s⁻¹.
On to B4, for which the Michaelis-Menten constant (Km) is 4.56 ± 0.12 mM, the kcat came out at 0.87 ± 0.012 s⁻¹ and the kcat/Km came to 190 M⁻¹ s⁻¹.
Turning to B7, the Km is 1.1 ± 0.03 mM, the kcat is 1.86 ± 0.05 s⁻¹ and the kcat/Km was 1690 M⁻¹ s⁻¹.
